Experiment: label from the status in PepcDB records

| Sequence | protein production |
| --- | --- |
| MSLELPFSNQSIIPAAHNQKDMEKILELDLTYMVMLETHVAQLKALVKYAQAGGKKVLLHADLVNGLKNDDYAIDFLCTEICPDGIISTRGNAIMKAKQHKMLAIQRLFMIDSSAYNKGVALIQKVQPDCIELLPGIIPEQVQKMTQKLHIPVIAGGLIETSEQVNQVIASGAIAVTTSNKHLWEGHHHHHH | not failed |
| MSLERFAPIKVERCKDIQKELKKAAAENKLQTEDLWFEILKTSIFIKNSAKDDFSEAFGGELQQLEEEEYYEKKELTLYQTHDIKIKSNAYKRFFEVKVDENLSAIEIILDECFIVLDTEEHYQEMFAYIKECLAFQGVVFRHFSQMYENLKTELRKYQKEAQNKRFILYTSSTFIPNIEEQSHFLLEEEYLPTHTIFLSDQEESFVKENYYIAKENQKVACVNCPKQGRDGRNLKGLYIELPKVAHSPTPIGHDKNAFEEREENNALVYYSKALQGVKMEKGRLVSKQNFIFKNGIKSIETPNLLGGLESGLALEIQARDELSDAIDSNLILEASVINIKGNVGKNVILVAKEITIEGQIHPESYVYANKARITNHKGVCYAKELECKYLERAKVYANSVKVEASAGSVVYAKEIALEKLKSDNKLYFSKQCWIDEVDGNGNRFIFYAFGGRENQEELKAAKQKLNALGLKSKKIIAQHQSLNHLVKNHQAIMEKLKNATEEIKRSLMQQESVKDAYSEFMFALKRLKILKAQMLELQKINNECYAKLISIENSFQHASITTKNPFKQENIVIYHRNYPKVSNSTAMLSHNESVNVIYEDHKIKKVPKSAIKG | failed |
| MSLETRARNSTRPASGLIDWEQARQAALRLSQWEQAPVDNRAFRREQYARMVALSEPLIADYLGVRLPEPVSRIFVFDRREWLEANIVSFSQLFRPIEEMYEKNGGGRGALGVLMNDVSSKLLGVQIGGLLGYLAQRVLGQYDLSLLSAEATGGSLYFVEPNIARVQQQLGLSDEDFRLWITLHEMTHAFEFEAYPWVRTYFRELLEQNFALVSGQMLSSGNSLVDMLMRLLQGIGSGQHWIETVLTPEQRAVFDRIQALMSLIEGYGNHVMNAVGRRLLPSFNQIEQQIAQRQRQRTMLDQMVFRLTGLDLKLAQYQQGEAFVNAVVAARGIQFASRVWERPENLPSMDEIRNPGQWIVRMDREGHHHHHH | not failed |
| MSLFAELTASVNAVRPGRTRMRNYDMPLIVAASTLLLLGLLMVYSASIALADGPRYASYGRYYFVIRHGLFLTAGLLAAAVVLSVPIRVWQRLAVPLFMFALILLVAVLIPGIGREVNGAHRWIPLGPLNFQPSELMKLAALLYAADYTVRKQEHMQAFSRGFLPMACALGGVGMLLLLEPDLGAFMVIVAIAIGILFLGGINGKYFSSLLAVLVGTFLMLIWVSPWRRARLFAYLDPWNEANAYGSAYQLSHSLIALGRGEWFGVGLGASVEKLHYLPEAHTDFLMAVVGEELGFAGVMLVITLFAIIVYRGFDIGRQAIAMERTFAGLVAHGVAMWVGVQAFINMGVCLGLLPTKGLTLPLMSYGGSGIVMNLCALAMLIRVDVENRVMMRGGRV | failed |
| MSLFIYEVLIRLFMTFILSLLLTPLVKLLAFRIGAYDAPGERRINTKNMPTAGGLAIYIAFASSCLLIFRSIIPQDYIWPIILAGGMVVLTGLIDDIKEITPMKKTIGILLAALVIYFVAGIRIDFVTLPVVGMIDLRWFSLPLTLLWILAITNAVNLIDGLDGLASGVSIIGLTTIGITGYFFLHAKTVYIPIVIFILVASIAGFFPYNFYPAKIFLGDTGALFLGFMIAVMSLQGLKNATFITVITPMVILGVPITDTVYAIIRRLLNKKPISSADKMHLHHRLLSLGFTHKGAVMTIYALALVFSFVSLLFSYSSTVASILLIVFCLIGLELFIELIGLVGEGHQPLMYLLRILGNREYRQEQMKKRLGKHSKRK | failed |
| MSLFKRSVVSEITSHAGVVFSTLVVVWLSVLLVRLLGEAAGGSIGADVVLGLAAFSTITALPTILAVSLFIAVLTTVTRNYRESEMVVWFASGLSLADWLRPVARVAVPIAMLVAALTLVASPWAYRQIGEYRERFEQRSDLSKVTAGQFAESGRGDRVFFAEDPVRPGDELGAVFARSIDPEWLSVLTASNARSETLPNGDRFLVLGEGHRYDLKPGTPEIRLVNFDQYGVRLESKAGEDPMAEARAAAERSSKARSTMQLVQDNTDSSWSQIMWRVAMPLAALNLALLAIPLGAVNPRLGRSGDLLIAGLVGLLYMNMINLSRAWISSGKISFSIGVWAVHAVVALLAAYLLMRRLRVKAPRNAGRGA | failed |
| MSLGRFVRHALITAGTKGLGKQVTEKLLAKGYSVTVTYHSDTTAMETMKETYKDVEERLQFVQADVTKKEDLHKIVEEAMSHFGKIDFLINNAGPYVFERKKLVDYEEDEWNEMIQGNLTAVFHLLKLVVPVMRKQNFGRIINYGFQGADSAPGWIYRSAFAAAKVGLVSLTKTVAYEEAEYGITANMVCPGDIIGEMKEATIQEARQLKEHNTPIGRSGTGEDIARTISFLCEDDSDMITGTIIEVTGAVDVIHREGHHHHHH | not failed |
| MSLHGKLIQFHKFGNPKDVLQVEYKNIEPLKDNEVFVRMLVRPINPSDLIPITGAYAHRIPLPNIPGYEGVGIVENVGAFVSRELIGKRVLPLRGEGTWQEYVKTSADFVVPIPDSIDDFTAAQMYINPLTAWVTCTETLNLQRNDVLLVNACGSAIGHLFAQLSQILNFRLIAVTRNNKHTEELLRLGAAYVIDTSTAPLYETVMELTNGIGADAAIDSIGGPDGNELAFSLRPNGHFLTIGLLSGIQVNWAEIVTKAKVHANIFHLRHWNDEVSPYKWQETFRHLIRLVENEQLRFMKVHSTYELADVKAAVDVVQSAEKTKGKVFLTSYEGHHHHHH | not failed |
| MSLIILTRDDEPRIFTPDSDAASPALHSTSPLPDPASASPLHREEKILPKVCNIVSCLSFSLPASPTDSGLASPTIITREGQQFWAKCLIWKYQLYLHGLHKKSDGRRDKQISASPST | failed |
| MSLILLGALSLASSTFAQTWIWYPGDYEIWLGNQMNNRRTERGAFFPPFWKTDSHYVVVEFSKVLNLSEPEEVFIAAEGTYNVKLDGKLQFGMPETLLLPAGKHSLNIKVWNQATPPTIYVKGKTVNSDSSWRVTYEDKEWIDESGKASDTSATIYMDAGCWNFDGATQRPSQFSLMREPQQPVAKTEQPEGGILYDFGKETFGFITLKNLSGKGKIDLYYGESPEEAKDKAYCETLDKLLLEPGQITDLAIRSTSPLHHSDNEYTLENSKAFRYVYITHEPEVQIGEVSMQYEYLPEEYRGNFRCNDEELNCIWEVGAYTMHLTTREFFIDGIKRDRWVWSGDAIQSYLMNYYLFFDSESVKRTIWLLRGKDPVTSHSNTIMDYTFYWFLSVYDYYMYSGDRHFVNQLYPRMQTMMDYVLGRTNKNGMVEGMSGDWVFVDWADGYLDKKGELSFEQVLFCRSLETMALCADLVGDKDGQQKYEKLASALKAKLEPTFWNNQKQAFVHNCVDGRQSDAVTRYANMFSVFFDYLNADKQQAIKQSVLLNDEILKITTPYMRFYELEALCALGEQETVMKEMKAYWGGMLKAGATSFWEKYNPEESGTQHLAMYGRPYGKSLCHAWGASPIYLLGKYYLGVKPTKEGYKEFAVSPVLGGLKWMEGTVPTPNGDIHVYMDNKTIKVKATEGKGYLTIQSRRQPKANMGTVEKVSEGVWRLWIDSPEERIVTYRLEGHHHHHH | not failed |
| MSLILYDYFRSTACYRVRIALNLKKIAYEKIEVHLVNNGGEQHSLQYHQINPQELVPSLDINGQILSQSMAIIDYLEEIHPEMPLLPKDPFMKATLKSMALIVACDMHPLNNLRVLNRLKEQFNANEEQVLEWYHHWLKTGFDAFEEKLGALERDKPVCFGSEVGLADVCLIPQVYNAHRFHFDMASYPIINEINEYCLTLPAFHDAAPEAISSEGHHHHHH | not failed |
| MSLIMITAEMVPPDLLIKRLAIYLKENVKTVDPPEWALLAKTASFKERVPDNAEDWWYIRAASLLRKLYVNSIIGIEKTRTIYGGRKRRGTRPEKFVKAPGHVNRLIFQQLEKAGLVQKIKNKGRSLSPKGRSLLDKLALEIFKELAENNTSLKVYLELEHHHHHH | not failed |
| MSLISFAPHSGVWLLTTPHTSYALRIDASGAPCHLAWGPRLTLAAAEELAVPEPPAASSFEGRPSVGEELPVDGGVRYGPPSLQVRFADGSRAFEWQPTGHRVHESADGAHELVLFFRDRRYPLQVALHYRVRADTDVIERWTVVRNGGDEPVTLLRADSAAWTLPPLADYRLSHVTGQWSAESRLRRDRLPYGETVLTSRRGITSHHTNPWLMVDSGEATEDHGRVWSAALAWSGSWRITTQRTPDGRTGFTGGVGHDGTGVPLTPGEEFTAPAFAGLFTADGFGAASRAWHAYTLAHVLPHPDEPVPVLYNSWEATGFDVDEVGQKALAERAAALGVELYVVDDGWFGGRRSDRAGLGDWTPAPDRFPDGLGPLADRVRELGMRFGLWVEPEMVNPDSDLYRAHPDWVLHLPDRSRSELRNQLVLNFARRDVADWAYGWLTELVGAHRIDFLKWDMNRAFSEAGWPGQQDGADRLGTQYVRHLYGVIDRLRADHPGLRIESCSGGGGRIDLGILGRTDQTWASDNTDAADRLWIQHGFSQIYPARTMGCWVTDAPNQFTGRGLPLRFRFHAAMAGALGIGGDLARWSEEELREGAALVTEYKKVRHLVQHGRLDRLSPPSGQSPAVVQYTSADGSESLVLAWRGVPRPGDADLPVRLRALTPAARYRDSRTGTVHHASVLGDYGLRLDLPAGDWSSVAMHLVREPEAV | failed |
| MSLIVITGASSGLGAELAKLYDAEGKATYLTGRSESKLSTVTNCLSNNVGYRARDLASHQEVEQLFEQLDSIPSTVVHSAGSGYFGLLQEQDPEQIQTLIENNLSSAINVLRELVKRYKDQPVNVVMIMSTAAQQPKAQESTYCAVKWAVKGLIESVRLELKGKPMKIIAVYPGGMATEFWETSGKSLDTSSFMSAEDAALMIHGALANIGNGYVSDITVNREGHHHHHH | not failed |
| MSLKFDFSNLFEPNISGGLTDEDVKSVEEKVTSAVRNFVENTPDFAKLDRSWIDSVKSLEDWIINFDTVVVLGIGGSGLGNLALHYSLRPLNWNEMTREERNGYARVFVVDNVDPDLMSSVLDRIDPKTTLFNVISKSGSTAEVMATYSIARGILEAYGLDPREHMLITTDPEKGFLRKLVKEEGFRSLEVPPGVGGRFSVLTPVGLLSAMAEGIDIDELHEGAKDAFEKSMKENILENPAAMIALTHYLYLNKGKSISVMMAYSNRMIYLVDWYRQLWAESLGKRYNLKGEEVFTGQTPVKALGATDQHSQIQLYNEGPNDKVITFLRVENFDREIVIPETGRAELSYLARKKLSELLLAEQTGTEEALRENNRPNMRVTFDGLTPYNVGQFFAYYEAATAFMGYLLEINPFDQPGVELGKKITFALMGREGYTYEIKERSKKVIIE | not failed |
| MSLKGKRIGFGFTGSHCTYEEVMPHLEKLIAEGAEVRPVVSYTVQSTNTRFGEGAEWIKKIEEITGFKAINSIVGAEPLGPKIPLDCMVIAPLTGNSMSKFANAMTDSPVLMAAKATLRNGKPVVLAVSTNDALGLNGVNLMRLMATKNIYFVPFGQDAPEKKPNSMVARMELLEDTVLEALQGKQLQPVVVEKFRYMNLEHHHHHH | not failed |
| MSLKGLRRLVLDVLKPHEPKTIVFALKLSELENVDGVNIHLSEIDQATENIKITILGNNLDYEQIKGVIEDMGGVIHSVDEVVAGKIIVESVEGHHHHHH | not failed |
| MSLKHVVVIGAVALGPKAACRFKRLDPEAHVTMIDQASRISYGGCGIPYYVSGEVSNIESLQATPYNVVRDPEFFRINKDVEALVETRAHAIDRAAHTVEIENLRTGERRTLKYDKLVLALGSKANRPPVEGMDLAGVTPVTNLDEAEFVQHAISAGEVSKAVIVGGGFIGLEMAVSLADMWGIDTTVVELADQIMPGFTSKSLSQMLRHDLEKNDVVVHTGEKVVRLEGENGKVARVITDKRTLDADLVILAAGVSPNTQLARDAGLELDPRGAIIVDTRMRTSDPDIFAGGDCVTIPNLVTGKPGFFPLGSMANRQGRVIGTNLADGDATFPGAVGSWAVKLFEGSASGAGLTVEGALREGYDAVNVHVEQFDRAHFYPEKTIMTLQLVVDRPTRRVLGIQGFSTLGDALTARINAVATMLASKPTVEDISNAEVVYSPPFASAMDIVNVAGNVADNVLAGREGHHHHHH | not failed |
